Source: PMC4505822

Target: insertion mutant recombinant human prion protein with five additional octapeptide repeats (human) (UniProt P04156)
Assay: AFM height measurement with a calibration curve of marker proteins

Substance “insertion mutant recombinant human prion protein with five additional octapeptide repeats (from UniProt P04156 23-231) (natural protein)” has a stoichiometry N of 11 to 22 monomers.
